Source: PMC4383067

Biological target: Full-length human acetylcholinesterase (dimeric, recombinant) (human) (UniProt P22303)
Experiment: SEC-MALS

## Full-length human acetylcholinesterase (dimeric, recombinant) (from UniProt P22303 32-614) (enzyme)
  stoichiometry N: 2
